Data on one molecule can be found in US20250277030A1 (Zymeworks, published 2025).

In test [1] the target is T1, cynomolgus monkey NaPi2b (cynomolgus monkey, UniProt O95436 1-690 (human entry)).
T1 construct: Transiently expressed on HEK293-6e cells; also called Cyno NaPi2b
T1 chain: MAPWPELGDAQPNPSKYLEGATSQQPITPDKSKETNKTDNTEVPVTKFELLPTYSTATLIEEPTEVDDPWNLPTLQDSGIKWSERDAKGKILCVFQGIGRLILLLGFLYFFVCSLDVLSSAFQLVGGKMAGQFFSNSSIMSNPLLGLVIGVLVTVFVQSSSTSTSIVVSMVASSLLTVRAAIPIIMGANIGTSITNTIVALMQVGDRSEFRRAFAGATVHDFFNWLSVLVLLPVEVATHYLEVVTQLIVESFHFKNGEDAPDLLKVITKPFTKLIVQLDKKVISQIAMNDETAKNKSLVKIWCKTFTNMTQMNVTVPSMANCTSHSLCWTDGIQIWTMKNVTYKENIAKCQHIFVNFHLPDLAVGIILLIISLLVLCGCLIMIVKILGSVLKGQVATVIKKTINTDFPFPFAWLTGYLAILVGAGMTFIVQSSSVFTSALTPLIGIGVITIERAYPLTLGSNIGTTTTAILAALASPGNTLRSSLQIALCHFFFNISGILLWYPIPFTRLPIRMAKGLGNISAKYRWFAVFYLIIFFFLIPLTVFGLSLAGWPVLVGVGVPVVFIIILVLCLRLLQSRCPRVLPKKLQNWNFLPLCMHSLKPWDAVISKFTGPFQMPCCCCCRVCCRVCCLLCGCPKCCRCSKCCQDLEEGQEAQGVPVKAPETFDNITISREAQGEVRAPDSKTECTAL
Put plainly: flow cytometry, HEK293-6e cells transfected with cynomolgus NaPi2b; apparent Kd. The protocol: (§1) The binding cross-reactivity of humanized antibody variant v29456 to human, cynomolgus and mouse NaPi2b was assessed by flow cytometry using HEK293-6e transfected cells.
(§2) Briefly, HEK293-6e cells were transfected for ˜24 hours to transiently express human NaPi2b, cynomolgus or mouse NaPi2b, at 1 μg of DNA per 1 million cells. Following transfection, 50,000 cells per well were seeded in V-bottom 96-well plates and incubated with 200 nM of primary antibody for 18-24 hours at 4° C. to prevent internalization. Post-incubation, cells were washed and stained with anti-Human IgG Fc AF647 conjugate (Jackson Immuno Research Labs, West Grove, PA, Cat. No. 109-605-098, Lot. No. 124868) at 4° C. for 1 hour. Following staining and washing, fluorescence was detected by flow cytometry on BD LSRFortessa™ Cell Analyzer (BD Biosciences, Franklin Lake, NJ) with 10,000 minimum events collected per well. The AF647/APC-A GeoMean (fluorescence signal geometric mean, proportional to anti-Human AF647 binding) was calculated for the live singlet cell population for each primary antibody using FlowJo™ v8 software (BD Biosciences, Franklin Lake, NJ). The Bmax and Kd of each primary antibody were calculated using GraphPad Prism Version 9 (GraphPad Software, San Diego, CA)

In test [2] the target is T1, cynomolgus monkey NaPi2b. Put plainly: flow cytometry, HEK293-6e cells transfected with cynomolgus NaPi2b. Here is the method:
as §1, §2

In test [3] the target is T2, human sodium-dependent phosphate transporter 2B (NaPi2b) (human, UniProt O95436 1-690).
T2 construct: UniProt ID is given as 095436 [sic]; also called hNaPi2b; Hu NaPi2b
T2 sequence: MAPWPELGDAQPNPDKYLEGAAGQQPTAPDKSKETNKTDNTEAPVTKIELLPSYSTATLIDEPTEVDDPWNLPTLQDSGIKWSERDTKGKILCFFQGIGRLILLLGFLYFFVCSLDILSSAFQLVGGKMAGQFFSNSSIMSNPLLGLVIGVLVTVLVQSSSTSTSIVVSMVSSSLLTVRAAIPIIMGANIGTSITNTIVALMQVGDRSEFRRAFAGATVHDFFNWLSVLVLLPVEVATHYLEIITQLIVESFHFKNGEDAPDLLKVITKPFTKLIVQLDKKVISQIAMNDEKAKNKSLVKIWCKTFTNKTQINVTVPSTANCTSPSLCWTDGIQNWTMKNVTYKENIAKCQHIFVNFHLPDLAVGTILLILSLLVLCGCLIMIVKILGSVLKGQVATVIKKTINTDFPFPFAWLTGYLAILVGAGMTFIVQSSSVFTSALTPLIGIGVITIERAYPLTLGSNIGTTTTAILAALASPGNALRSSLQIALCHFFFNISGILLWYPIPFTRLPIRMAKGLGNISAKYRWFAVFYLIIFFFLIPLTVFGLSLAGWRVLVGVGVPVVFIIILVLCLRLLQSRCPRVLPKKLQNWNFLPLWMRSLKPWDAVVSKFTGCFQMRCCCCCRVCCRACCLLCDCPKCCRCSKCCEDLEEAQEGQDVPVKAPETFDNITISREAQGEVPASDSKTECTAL
Put plainly: flow cytometry, HEK293-6e cells transfected with human NaPi2b; apparent Kd. The protocol: The binding cross-reactivity of humanized antibody variant v38591 to human NaPi2b, NaPi2a, and NaPi2c was assessed by flow cytometry using HEK293-6e transfected cells.
Following transfection, cells were seeded at 50,000 cells/well in conical-bottom 96-well plates and treated with test antibody for 24 hours at 4° C. to prevent internalization. Following incubation, cells were washed and stained with anti-Human IgG Fc AF647 conjugate (Jackson Immuno Research Labs, West Grove, PA; Cat. No. 109-605-098) or anti-Rabbit IgG F(ab″)2 AF647 conjugate (Jackson Immuno Research Labs, West Grove, PA; Cat. No. 111-605-047). Following incubation and washing, fluorescence was detected by flow cytometry on a BD LSRFortessa™ Cell Analyzer (BD Biosciences, Franklin Lake, NJ) with 1,000 minimum events collected per well. The AF647/APC-A GeoMean (fluorescence signal geometric mean, proportional to anti-Human AF647 binding) was calculated for the live cell population using FlowJo™ Version 10.8.1 (BD Biosciences, Franklin Lake, NJ) and plotted for each test antibody using GraphPad Prism Version 9 (GraphPad Software, San Diego, CA).
Background: A flow cytometer gives signals particle by particle.

Another test addresses T3, mouse NaPi2b (mouse, UniProt Q9DBP0 1-697).
T3 construct: Transiently expressed on HEK293-6e cells; also called Ms NaPi2b
T3 sequence: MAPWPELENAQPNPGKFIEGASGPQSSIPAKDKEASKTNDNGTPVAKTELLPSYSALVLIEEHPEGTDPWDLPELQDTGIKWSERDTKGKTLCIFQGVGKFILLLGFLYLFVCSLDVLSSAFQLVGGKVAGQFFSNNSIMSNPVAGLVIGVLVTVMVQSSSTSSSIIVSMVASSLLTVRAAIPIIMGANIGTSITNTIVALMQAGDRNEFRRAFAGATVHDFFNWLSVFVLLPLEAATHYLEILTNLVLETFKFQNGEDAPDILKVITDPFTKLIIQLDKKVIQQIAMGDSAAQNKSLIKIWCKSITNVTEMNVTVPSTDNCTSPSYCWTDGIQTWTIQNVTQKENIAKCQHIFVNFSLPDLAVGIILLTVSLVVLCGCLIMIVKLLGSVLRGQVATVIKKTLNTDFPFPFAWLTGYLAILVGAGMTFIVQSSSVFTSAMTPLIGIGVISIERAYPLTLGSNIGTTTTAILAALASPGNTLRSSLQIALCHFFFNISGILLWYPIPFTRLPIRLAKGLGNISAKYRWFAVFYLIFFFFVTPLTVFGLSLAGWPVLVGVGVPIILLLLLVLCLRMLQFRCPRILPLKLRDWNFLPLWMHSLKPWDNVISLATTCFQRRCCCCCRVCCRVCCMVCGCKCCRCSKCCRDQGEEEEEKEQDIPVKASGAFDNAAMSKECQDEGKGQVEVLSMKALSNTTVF
Put plainly: flow cytometry, HEK293-6e cells transfected with mouse NaPi2b; apparent Kd above the highest concentration tested.

Test [4] addresses T2, human sodium-dependent phosphate …. Put plainly: flow cytometry, HEK293-6e cells transfected with human NaPi2b. The protocol:
as §1, §2

Test [5] has the same target. Put plainly: flow cytometry, HEK293-6e cells transfected with human NaPi2b; apparent Kd. Here is the method: as §1, §2
The source holds these as a separate data set.

Where two headings read alike, the source gives them in different places. A value given as a limit tells only on which side of the number the result lay.

B1: v18992, reference anti-NaPi2b antibody MX35 (antibody, human IgG1, kappa)
heavy 1: GQVQLVQSGAEVVKPGASVKMSCKASGYTFTGYNIHWVKQAPGQGLEWIGAIYPGNGDTSYKQKFRGRATLTADTSTSTVYMELSSLRSEDSAVYYCARGETARATFAYWGQGTLVTVSSASTKGPSVFPLAPSSKSTSGGTAALGCLVKDYFPEPVTVSWNSGALTSGVHTFPAVLQSSGLYSLSSVVTVPSSSLGTQTYICNVNHKPSNTKVDKKVEPKSCDKTHTCPPCPAPELLGGPSVFLFPPKPKDTLMISRTPEVTCVVVDVSHEDPEVKFNWYVDGVEVHNAKTKPREEQYNSTYRVVSVLTVLHQDWLNGKEYKCKVSNKALPAPIEKTISKAKGQPREPQVYVYPPSRDELTKNQVSLTCLVKGFYPSDIAVEWESNGQPENNYKTTPPVLDSDGSFALVSKLTVDKSRWQQGNVFSCSVMHEALHNHYTQKSLSLSPG
heavy 2: not shown
light: GDIQMTQSPSSLSASVGDRVTITCSASQDIGNFLNWYQQKPGKTVKVLIYYTSSLYSGVPSRFSGSGSGTDYTLTISSLQPEDFATYYCQQYSKLPLTFGQGTKLELKRTVAAPSVFIFPPSDEQLKSGTASVVCLLNNFYPREAKVQWKVDNALQSGNSQESVTEQDSKDSTYSLSSTLTLSKADYEKHKVYACEVTHQGLSSPVTKSFNRGEC
With B1, the Kd with cynomolgus monkey NaPi2b [1] is 31 nM; in test [3] it was 1.51 nM; in the test with mouse NaPi2b, more than 200 nM; in test [5], 1.98 nM. Moreover, the entries for the “Bmax (APC-A GeoMean)” value (in the test with cynomolgus monkey NaPi2b [2]; in test [4]) were 2360 APC-A GeoMean and 1900 APC-A GeoMean, respectively.
